Legend:
Myc-GST融合蛋白 [1] = assay: ELISA, Myc-GST coated at 5 μg/mL, HRP anti-His second antibody, heat test at 80℃ for 30 min
Myc-GST融合蛋白 [2] = assay: ELISA, Myc-GST coated at 5 μg/mL, HRP anti-His second antibody, heat test at 70℃ for 30 min
Myc-GST融合蛋白 [3] = assay: ELISA, Myc-GST coated at 5 μg/mL, HRP anti-His second antibody, heat test at 90℃ for 30 min

OD450 (Myc-GST融合蛋白 [1]): 1.3
OD450 (Myc-GST融合蛋白 [2]): 1.4
OD450 (Myc-GST融合蛋白 [3]): 1.1
B1: 抗c-Myc标签单域重链抗体 (VHH, not shown: small tags and cut ends)
VHH: QLQLVESGGGEVHPGGSLTLSCEVSGINPAYYAIGWFHQSPGKEREGVACISQGGAKTNYADSVKGRFTISRDSAKNTVYLHMNSLQSEDTGSYYCARRRGAYCTESNSAGDYASWGQGTQVTVST
